Molecular target: T1, interaction between GST-p6 and myc-Tsg101(1-207) (Homo sapiens, UniProt Q99816)
T1 construct: myc-tagged Tsg101 (residues 1-207); made in house; host or cells: Drosophila S2 cells, with Tsg101 used as crude cell lysate
T1 sequence (Q99816 1-207): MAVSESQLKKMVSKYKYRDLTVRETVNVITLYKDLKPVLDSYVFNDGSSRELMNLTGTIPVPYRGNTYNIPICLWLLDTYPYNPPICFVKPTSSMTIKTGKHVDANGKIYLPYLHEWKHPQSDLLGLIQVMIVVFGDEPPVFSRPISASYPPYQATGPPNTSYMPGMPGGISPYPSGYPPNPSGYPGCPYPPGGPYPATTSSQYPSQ
Test: Competitive inhibition of GST-p6 : myc-Tsg101(1-207) binding on plates (fluorescence detection)
Details: competitive inhibition curve, FIG. 1
Description: A fusion protein with a GST tag fused to the HIV-1 GAGp6 domain was recombinantly expressed and purified by chromatography. In addition, a GAGp6 peptide containing the first 14 amino acid residues (“p6(1-14)”) was synthesized chemically by standard peptide synthesis methods. The peptide was purified by conventional protein purification techniques, e.g., by chromatography.
Nunc/Nalgene Maxisorp plates were incubated overnight at 4° C. or for 1-2 hrs at room temperature in 100 μl of a protein coupling solution containing purified GST-p6 and 50 mM Carbonate, pH=9.6. This allowed the attachment of the GST-p6 fusion protein to the plates. Liquids in the plates were then emptied and wells filled with 400 μl/well of a blocking buffer (SuperBlock; Pierce-Endogen, Rockford, Ill.). […]
Plates were then washed 4×100 μl with 1×PBST solution (Invitrogen; Carlsbad, Calif.). […] Plates were then read on a Packard Fusion instrument at an excitation wavelength of 325 nm and an emission wavelength of 420 nm. […]
Different concentrations of the p6(1-14) peptide were tested, and the relative intensities of the fluorescence signals obtained at different concentrations were plotted against the peptide concentrations. […]

## p6(1-14): chemically synthesized GAGp6 peptide containing the first 14 amino acid residues (LQSRPEPTAPPEES)
  inhibition of protein-protein interaction between GST-p6 and myc-Tsg101(1-207): capable of inhibiting protein-protein interaction

— US20100256040A1 (priority 2001, published 2010)
